Data published in patent publication US9096835B2, “DNA polymerase” (Medical Research Council, priority 2003, dated 2015).
“Also recorded” adds a separate entry of the source.

Experiments:
[1] = tested on: primer-template duplex, correct or incorrect incoming dNTP; assay: Steady-state single nucleotide incorporation kinetics, gel-based assay; assay type: biochemical
Protocol: Kinetic parameters were determined using a gel-based assay essentially as described (16). Primers 15, 16, 17 (3′ base=G, C, A respectively) were ^32P-labeled and annealed to one of template strands 18, 19, 20 (template base=C, G, A respectively) or 21 (template base C different context). Duplex substrates were used at 50 nM final concentration in 1× Taq buffer with various concentrations of enzyme and dNTP. Reactions were carried out at 60° C. for times whereby <20% of primer-template was utilized at the highest concentration of dNTP.
Extension and incorporation kinetics of M1 and M4 for a selection of mismatches were measured using a gel-based steady-state kinetic assay (Goodman) (Tables 1 & 2). M1 and M4 respectively extend a C•C mispair 390 and 75-fold more efficiently than wtTaq. […] The gain in extension efficiency derives predominantly from increased relative Vmax values for the mutant polymerases, while Km for nucleotide substrates remains largely unchanged. For most DNA polymerases the relative efficiency of extending a given mispair (f0ext) is similar to the relative efficiency of forming it (finc) (Goodman 1993, Goodman 1990, Washington 2001). Indeed, M1 and M4 respectively incorporate dCTP opposite template base C 206- and 29-fold more efficiently than wtTaq (Table 2).

[2] = tested on: template containing an abasic site; assay: Translesion replication assay (primer extension), abasic site; assay type: biochemical; conditions: gel-extension assay, 60° C.
Protocol: (§1) Template primers 22 (undamaged) or 23 (containing a synthetic abasic site) were synthesized by Lofstrand Laboratories (Gaithersburg, Md.). Template primer 24 (containing a single cis-syn thymine dimer), was synthesized as described (34). Primer 25 was ^32P-labeled and annealed to one of the three templates 22, 23, 24 (at a primer template ratio of molar 1:1.5) and extended in 40 mM Tris.HCl at pH 8.0, 5 mM MgCl2, 100 μM of each dNTP, 10 mM DTT, 250 μg/ml BSA, 2.5% glycerol, 10 nM primer-template DNA and 0.1 Unit of polymerase at 60° C. for various times.
(§2) Primer extension assays were essentially as described in (Ghadessy et al., 2004). Briefly, undamaged oligonucleotides and a 51mer containing a synthetic abasic site were synthesized by Lofstrand Laboratories (Gaithersburg, Md.) using standard techniques and were gel purified prior to use. A 20mer primer (LES—20 P) with the sequence 5′-[…]-3′ (SEQ ID NO: 99) was 5′-labeled with [^32P]ATP (5000 Ci/mmole; 1 Ci=37 GBq) (Pharmacia) using T4 polynucleotide kinase (Invitrogen, Carlsbad Calif.). Radiolabeled primer-template DNAs were prepared by annealing the 5′[^32P] labeled 20mer primer to one of the two following 51mer templates (at a primer template ratio of molar 1:1.5). 1) undamaged DNA (UNDT51T); 5′-AGCTACCATGCCTGCACGAATTCGGCATCCGTCGCGACCACGGTCGCAGCG-3′ (SEQ ID NO: 100); 2) an oligo (LABA51T) containing a synthetic abasic site (indicated as an X in bold font); 5′-AGCTACCATGCCTGCACGACA XCG GCATCCGTCGCGACCACGGTCGCAGCG-3′ (SEQ ID NO: 101). Standard replication reactions of 10 contained 40 mM Tris.HCl at pH 8.0, 5 mM MgCl2, 100 μM of each ultrapure dNTP (Amersham Pharmacia Biotech, NJ), 10 mM DTT, 250 μg/ml BSA, 2.5% glycerol, 10 nM 5′[32P] primer-template DNA and 0.1 Unit of polymerase. After incubation at 60° C. for various times reactions were terminated by the addition of 10 μl of 95% formamide/10 mM EDTA and the samples heated to 100° C. for 5 min. Reaction mixtures (5 μl) were subjected to 20% polyacrylamide/7 M Urea gel electrophoresis and replication products visualized by PhosphorImager analysis.

[3] = tested on: template containing a cis-syn cyclobutane thymine-thymine dimer (CPD); assay: Translesion replication assay (primer extension), CPD; assay type: biochemical; conditions: gel-extension assay, 60° C.
Protocol: as §1, §2

[4] = PCR with all four dNTPs replaced by αS dNTPs; assay type: biochemical; conditions: 50 cycle PCR, 50 μM αS dNTPs
Protocol: A PCR assay was used to screen and rank clones. Briefly, clones were normalized for activity in PCR with matched primers 3, 4 and activity with mismatched primers 1 and 2 (1 μM each) determined at minimal cycle number (15-25 cycles). Extension capability for different mismatches was determined by the same assay using mismatch primers 2 (C•C mismatch), 5 (A•A mismatch), 6 (G•G mismatch), 7 (G•A mismatch) with matched primer 3 or primer 1 (A•G mismatch) with matched primer 4. Incorporation of unnatural substrates in 50 cycle PCR was carried out using standard conditions and 50 μM […] dNTPs (Promega) or 50 μM FITC-12-dATP (Perkin-Elmer), Rhodamine-5-dUTP (Perkin-Elmer) or Biotin-16-dUTP (Roche) with equivalent amounts of the other 3 dNTPs (all 50 μM). Long PCR was carried out using a two-step cycling protocol as described (22) 94° C. for 2 minutes, followed by 20 cycles of (94° C. 15 sec, 68° C. 30 min) using 5 ng of phage λ DNA (New England Biolabs) template and either primers 9, 10, 11 with primer 12 or primer 13 with primers 10, 14.

[5] = molecular target: matched and mismatched primer-template duplex; assay: Template affinity equilibrium binding assay; conditions: not shown
Protocol: An equilibrium binding assay (12) was used to determine relative affinity of polymerases for the mismatched primer-templates used in the kinetics assays. Polymerases were preincubated at 60° C. in 1× Taq buffer with 50 nM ^32P-labeled matched primer-template and 50 nM unlabeled mismatched competitor primer-templates. Reactions were initiated by simultaneous addition of dCTP (200 μM) and trap DNA (XbaI/SalI-restricted sheared salmon sperm DNA, 4.5 mg/ml).

wtTaq: Thermus aquaticus (Taq) wild type DNA polymerase [reference compound]
Km ([1]; base pair C: dCTP): 1330 µM | Ratio of finc, finc (mutant polymerase)/finc (wtTaq) ([1]; base pair C: dCTP): 1 | finc, f (incorrect dNTP)/f (correct dNTP) ([1]; base pair C: dCTP): 3.86 × 10^−8 | Vmax ([1]; base pair C: dCTP (template base: incoming nucleotide)): 3.3 % Min^−1 | Vmax ([1]; base pair C: dGTP (template base: incoming nucleotide), correct dNTP): 2356.02 % Min^−1 | Km ([1]; base pair C: dGTP, correct dNTP): 0.0366 µM | Km ([1]; base pair G: dATP): 259 µM | Ratio of finc, finc (mutant polymerase)/finc (wtTaq) ([1]; base pair G: dATP): 1 | finc, f (incorrect dNTP)/f (correct dNTP) ([1]; base pair G: dATP): 8.27 × 10^−5 | Vmax ([1]; base pair G: dATP (template base: incoming nucleotide)): 1973.68 % Min^−1 | Vmax ([1]; base pair G: dCTP (template base: incoming nucleotide), correct dNTP): 1477 % Min^−1 | Km ([1]; base pair G: dCTP, correct dNTP): 0.016 µM | Km ([1]; base pair G: dGTP): 365 µM | Ratio of finc, finc (mutant polymerase)/finc (wtTaq) ([1]; base pair G: dGTP): 1 | finc, f (incorrect dNTP)/f (correct dNTP) ([1]; base pair G: dGTP): 1.7 × 10^−6 | Vmax ([1]; base pair G: dGTP (template base: incoming nucleotide)): 57.47 % Min^−1 | Km ([1]; base pair G: dTTP): 1.64 µM | Ratio of finc, finc (mutant polymerase)/finc (wtTaq) ([1]; base pair G: dTTP): 1 | finc, f (incorrect dNTP)/f (correct dNTP) ([1]; base pair G: dTTP): 1.65 × 10^−4 | Vmax ([1]; base pair G: dTTP (template base: incoming nucleotide)): 25.08 % Min^−1 | abasic site bypass in primer extension [2]: further extension is largely abolished; also recorded: further extension was negligible | CPD bypass in primer extension [3]: only able to insert a base opposite the 3′T of the dimer after prolonged reaction conditions | PCR amplification with all four αS dNTPs [4]: failed to generate any amplification products | dissociation constants for matched and mismatched primer-template duplex [5]: indistinguishable

B1: 3A10: third round clone, abasic site bypass; SEQ ID NO: 86 (protein)
chain: MAMLPLFEPKGRVLLVDGHHLAYRTFFALKGLTTSRGEPVQVVYGFAKSLLKALKEDGYKAVFVVFDAKAPSFRHKAYEAYRAGRAPTPQDFPRQLALIKELVDLLGFTRLEVPGYEADDVLATLAKKAEKEGYEVRILTADRGLYQLVSDRVAVLHPEGHLITPEWLWEKYGLRPEQWVDFRALVGDPSDNLPGVKGIGEKTALKLLKEWGSLENLLKNLDRVKPENVREKIKAHLEDLRLSLELSRVRTDLPLEVDLAQGREPDREGLRAFLERLEFGSLLHEFGLLESPKALEEAPWPPPEGAFVGFVLSRKEPMWADLLALAAARGGRVHQAPEPYKALRDLKEARGLLAKDLSVLALREGLGLPPGDDPMLLAYLLDPSNTTPEGVARRYGGEWTEEAGERAALSERLFANLWGRLEGEERLLWLYREVERPLSAVLAHMETTGVRLDVAYLRALSLEVAEEIARLEAEVFRLAGRPFNLNSRDQLERVLFDELGLPAIGKTEKTGKRSTSAAVLEALREAHPIVEKILQYRELTKLKSTYIDPLPDLIHPRTGRLHTRFNQTATATGRLSSSDPNLQNIPVRTPLGQRIRRAFIAEEGWLLVVLDYSQMELRVLAHLSGDENLIRVFQEGKDIHTQTASWMFGVPPEAVDPLMRRAAKTVNFGVLYGMSAHRLSQELSIPYEEAVAFIERYFQSFPKVRAWIEKTLEEGRRRGYVETLFGRRRYVPDLNARMKSVRGAAERMAFNMPVQGTAADLMKLAMVKLFPRLREMGARMLLQVHDELLLEAPQARAEEVAALAKEAMEKAYPLAVPLEVEVGIGEDWLSAKE
modifications: Mutant Taq polymerase
abasic site bypass in primer extension ([2]; listed as A10): clearly better at both abasic site and CPD extension and bypass than both wild type and M1; also recorded: clearly display better abasic site bypass than either wtTaq or M1 | CPD bypass in primer extension ([3]; listed as A10): clearly better at both abasic site and CPD extension and bypass than both wild type and M1; also recorded: superior elongation and bypass when compared to wild type

B2: 3D1: third round clone, four mismatch extension; SEQ ID NO: 98 (protein)
chain: MAMLPLFEPKGRVLLVDGHHLAYRTFFALKGPTTSRGEPVQVVYGFAKSLLKALKEDGYKAVFVVFDAKAPSFRHKAYEAYRAGRAPTPEDFPRQLALIKELVDLLGFTRLEVPGYEADDVLATLAKKAEKEGYEVRILTADRGLYQLVSDRVAVLHPEGHLITPEWLWEKYGLRPEQWVDFRALVGDPSDNLPGVKGIGEKTALKLLKEWGSLENLLKNLDRVKPENVREKIKAHLEDLRLSLELSRVRTDLPLEVDLAQRREPDREGLRAFLERLEFGSLFHEFGLLESPKALEEAPWPPPEGAFVGFVLSRKEPMWADLLALAAARGGRVHRAPEPYKALRDLKEARGLLAKDLSVLALREGLGLPPGDDPMLLAYLLDPSNTTPEGVARRYGGEWTEEAGERAALSERLFANLWGRLEGEERLLWLYREVERPLSAVLAHMEATGVRLDVAYLRALSLEVAEEIARLEAEVFRLAGHPFNLNSRDQLEMVLFDELRLPALGKTQKTGKRSTSAAVLEALREAHPIVEKILQYRELTKLKSTYIDPLSDLIHPRTGRLHTRFNQTATATGRLSSSDPNLQNIPVRTPLGQRIRRAFIAEEGWLLVVLDYSQIELRVLAHLSGDENLIRVFQEGRDIHTETASWMFGVPREAVDPLMRRAAKTINFGVLYGMSAHRLSQELAIPYEEAQAFIERYFQSFPKVRAWIEKTLEEGRRRGYVETLFGRRRYVPDLEARVKSVREAAERMAFNMPVQGTAADLMKLAMVKLFPRLGETGARMLLQVHDELVLEAPKERAEAVARLAKEAMEGVYPLAVPLEVEVGIGEDWLSAKG
modifications: Mutant Taq polymerase
abasic site bypass in primer extension [2]: clearly display better abasic site bypass than either wtTaq or M1
